Results taken from PMC8855710.

Key:
[1] = target: htt^ex1Q7 (huntingtin exon-1 polypeptide with seven glutamines); test: NMR titration
[2] = target: PL: binary complex of monomeric htt^ex1Q7 with Fyn SH3 (not stated | Gallus gallus) (UniProt Q05876); test: NMR titration
[3] = target: huntingtin exon 1 (httex1Q7) dimer exon 1 (Homo sapiens) (UniProt P42858); conditions: cited from earlier work

## Gallus gallus tyrosine kinase Fyn SH3 domain (wild type) (from UniProt Q05876 85-135) (domain or fragment)
[1]
  Kd: 210 µM

## PL: binary complex of monomeric htt^ex1Q7 with Fyn SH3 (from UniProt Q05876 85-135)
[2]
  stoichiometry N: 2

## huntingtin exon 1 (httex1Q7) dimer exon 1 (from UniProt P42858)
[3]
  Kd: 25 µM
